The values that follow come from PMC3001952.

This assay has as its target single chain trimer version of HLA-Cw6, normal length. As to the kind of experiment: cell-cell conjugate formation by flow cytometry; PKH26-labelled NKL cells (or KIR2DL1-expressing NKL cells) mixed with equal numbers of PKH67-labelled P815 transfectants, 30 min, fixed with 1% paraformaldehyde; percentage of NKL cells forming conjugates. (In general: In flow cytometry, cells or beads pass a laser one at a time.)

Where only a bound is given, the exact number is not on record here.

In the case of “KIR2DL1-CFP on NKL cells (from UniProt P43626 22-348) (receptor)”, the percent of NKL cells forming conjugates was more than 50%.
